This assay has as its target Tim50^IMS (purified, recombinant) (S. cerevisiae) (UniProt Q02776). In words: cross-linking.
Chain of UniProt Q02776 (Q02776 133-476): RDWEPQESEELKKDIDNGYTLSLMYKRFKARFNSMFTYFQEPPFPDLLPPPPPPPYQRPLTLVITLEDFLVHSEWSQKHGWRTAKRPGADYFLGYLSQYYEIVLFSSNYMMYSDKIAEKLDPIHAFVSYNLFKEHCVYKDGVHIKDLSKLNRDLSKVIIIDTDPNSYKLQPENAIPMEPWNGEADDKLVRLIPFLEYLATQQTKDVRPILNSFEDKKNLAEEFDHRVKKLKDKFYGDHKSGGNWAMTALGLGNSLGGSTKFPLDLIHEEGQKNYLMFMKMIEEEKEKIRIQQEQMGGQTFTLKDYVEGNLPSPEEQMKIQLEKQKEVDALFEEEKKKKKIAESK

As for “[35S]Tim23(F114C) (from UniProt P32897 1-222) (natural protein)”, the fold cross-linking with TOCL over without TOCL came to 6 fold.

Values taken from publication PMC5580885.
